According to paper PMC9166738:

Columns and labels:
[1] = target: Fdh3B-CodhA fusion protein with (GGGGS)1 linker (Thermococcus onnurineus NA1); assay: SEC; Strep-tag purified CFOR complex on a calibrated Superdex 200 10/300 GL column in buffer W, 0.5 ml/min, anaerobic; complex formed in cells and co-purified beforehand
[2] = target: Formate dehydrogenase catalytic subunit Fdh3A with N-terminal Strep-tag (Thermococcus onnurineus NA1); assay: as above

stoichiometry N [1] | stoichiometry N [2] | Substance
2 | – | CO dehydrogenase catalytic subunit CodhB (enzyme)
– | 1 | Fdh3B-CodhA fusion protein with (GGGGS)1 linker
